Changes are numbered by the printed parent chain.
B1: NRC3_wobSeed26_DR1_C4T_o1 (dsDNA)
DNA 1: GCTTTAGTTGGTCAAAGGTCACACACTCGAAATGCGGCGATTGACAGCGTAGAATGAAGG
DNA 2: CCTTCATTCTACGCTGTCAATCGCCGCATTTCGAGTGTGTGACCTTTGACCAACTAAAGC
B2: NRC3_wobSeed31_DR1_A13T_o1 (dsDNA)
DNA 1: GCTCATATAGGTTAAAGGTGAAAGTCGGTGTGGTAAGCGATTGACAGCGTAGAATGAAGG
DNA 2: CCTTCATTCTACGCTGTCAATCGCTTACCACACCGACTTTCACCTTTAACCTATATGAGC
B3: NRC3_wobSeed15_DR0_G11T_o1 (dsDNA)
DNA 1: GCCGAACTAGTTCAAGGACAGTGAATCTCCGCACGCGCGATTGACAGCGTAGAATGAAGG
DNA 2: CCTTCATTCTACGCTGTCAATCGCGCGTGCGGAGATTCACTGTCCTTGAACTAGTTCGGC
B4: NRC3_wobSeed1_DR0_G23T_o1 (dsDNA)
DNA 1: GCCAAACTAGGTCAAGGTCAAATTCGGTTTGTGCCAGCGATTGACAGCGTAGAATGAAGG
DNA 2: CCTTCATTCTACGCTGTCAATCGCTGGCACAAACCGAATTTGACCTTGACCTAGTTTGGC
B5: NRC3_wobSeed1_DR0_C25A_o1 (dsDNA)
DNA 1: B4 DNA 1 with T23G, C25A
DNA 2: B4 DNA 2 with G36T, A38C
B6: NRC3_wobSeed1_DR0_A4T_o1 (dsDNA)
DNA 1: B4 DNA 1 with A4T, T23G
DNA 2: B4 DNA 2 with A38C, T57A
B7: NRC3_wobSeed1_DR0_C7G_o1 (dsDNA)
DNA 1: B4 DNA 1 with C7G, T23G
DNA 2: B4 DNA 2 with A38C, G54C
B8: NRC3_wobSeed41_DR1_T13G_o1 (dsDNA)
DNA 1: GCATATGTAGGTGAAGGGTCATTCAGGTTGGTTCGCGCGATTGACAGCGTAGAATGAAGG
DNA 2: CCTTCATTCTACGCTGTCAATCGCGCGAACCAACCTGAATGACCCTTCACCTACATATGC
B9: NRC3_wobSeed35_DR1_T11G_o1 (dsDNA)
DNA 1: GCGCTATTAGGTGAAAGGGCAACCGAATGATTCTCGGCGATTGACAGCGTAGAATGAAGG
DNA 2: CCTTCATTCTACGCTGTCAATCGCCGAGAATCATTCGGTTGCCCTTTCACCTAATAGCGC
B10: NRC3_wobSeed40_DR1_A4G_o1 (dsDNA)
DNA 1: GCTGGCCTAGGTCATGGGCCAGTATACCACGCGAACGCGATTGACAGCGTAGAATGAAGG
DNA 2: CCTTCATTCTACGCTGTCAATCGCGTTCGCGTGGTATACTGGCCCATGACCTAGGCCAGC
B11: NRC3_wobSeed32_DR1_T20C_o1 (dsDNA)
DNA 1: GCTCTTGTAGATCAAAGGTCAAGAAAGCCGAAGCCTGCGATTGACAGCGTAGAATGAAGG
DNA 2: CCTTCATTCTACGCTGTCAATCGCAGGCTTCGGCTTTCTTGACCTTTGATCTACAAGAGC
B12: NRC3_wobSeed65_DR2_T13C_o1 (dsDNA)
DNA 1: GCATATGTAGGTCATCGGGTCATTCAGTTTGCGCATGCGATTGACAGCGTAGAATGAAGG
DNA 2: CCTTCATTCTACGCTGTCAATCGCATGCGCAAACTGAATGACCCGATGACCTACATATGC
B13: NRC3_random_hg19_62_o1 (dsDNA)
DNA 1: GCAGATGGGAGAGTTCCCTTGATTCCTTTGTGGGAGGCGATTGACAGCGTAGAATGAAGG
DNA 2: CCTTCATTCTACGCTGTCAATCGCCTCCCACAAAGGAATCAAGGGAACTCTCCCATCTGC
B14: NRC3_wobSeed121_DR5_C7G_o1 (dsDNA)
DNA 1: GCCAAAGTAGGTCACCGGAAGGTCAAAGTCCGCATGGCGATTGACAGCGTAGAATGAAGG
DNA 2: CCTTCATTCTACGCTGTCAATCGCCATGCGGACTTTGACCTTCCGGTGACCTACTTTGGC
B15: NRC3_wobSeed121_DR5_A4T_o1 (dsDNA)
DNA 1: B14 DNA 1 with A4T, G7C
DNA 2: B14 DNA 2 with C54G, T57A
B16: NRC3_wobSeed33_DR1_A13G_o1 (dsDNA)
DNA 1: GCATCTCTAGGTGAAAGTTCAGTGAATCCCGAGGATGCGATTGACAGCGTAGAATGAAGG
DNA 2: CCTTCATTCTACGCTGTCAATCGCATCCTCGGGATTCACTGAACTTTCACCTAGAGATGC
B17: NRC3_wobSeed33_DR1_C5A_o1 (dsDNA)
DNA 1: B16 DNA 1 with C5A, G13A
DNA 2: B16 DNA 2 with C48T, G56T
B18: NRC3_wobSeed47_DR1_G8T_o1 (dsDNA)
DNA 1: GCGGAACTAGGGCAAAGTTGATAGCATCTGTCGACGGCGATTGACAGCGTAGAATGAAGG
DNA 2: CCTTCATTCTACGCTGTCAATCGCCGTCGACAGATGCTATCAACTTTGCCCTAGTTCCGC
B19: NRC3_wobSeed39_DR1_A19G_o1 (dsDNA)
DNA 1: GCCGAACTAGGTCAAAGGGCAGTGAAAGGCGACGTAGCGATTGACAGCGTAGAATGAAGG
DNA 2: CCTTCATTCTACGCTGTCAATCGCTACGTCGCCTTTCACTGCCCTTTGACCTAGTTCGGC
B20: NRC3_wobSeed27_DR1_C6T_o1 (dsDNA)
DNA 1: GCACTTGGAGGACAAAGGTCAGAGCTACGCCAGTGAGCGATTGACAGCGTAGAATGAAGG
DNA 2: CCTTCATTCTACGCTGTCAATCGCTCACTGGCGTAGCTCTGACCTTTGTCCTCCAAGTGC
B21: NRC3_wobSeed27_DR1_C6A_o1 (dsDNA)
DNA 1: B20 DNA 1 with T6A
DNA 2: B20 DNA 2 with A55T
B22: NRC3_wobSeed49_DR2_A15C_o1 (dsDNA)
DNA 1: GCCAAACTAGGTCACGAGGTCAAAGTCCGCTTCCCGGCGATTGACAGCGTAGAATGAAGG
DNA 2: CCTTCATTCTACGCTGTCAATCGCCGGGAAGCGGACTTTGACCTCGTGACCTAGTTTGGC
B23: NRC3_wobSeed30_DR1_G16A_o1 (dsDNA)
DNA 1: GCACTAGCAGGCCAAAGGTCACTCAAGATTAGTCCGGCGATTGACAGCGTAGAATGAAGG
DNA 2: CCTTCATTCTACGCTGTCAATCGCCGGACTAATCTTGAGTGACCTTTGGCCTGCTAGTGC
B24: NRC3_wobSeed28_DR1_C4T_o1 (dsDNA)
DNA 1: GCCTTACTGGGCCAAAGGTCATTGATTCCAATGCTCGCGATTGACAGCGTAGAATGAAGG
DNA 2: CCTTCATTCTACGCTGTCAATCGCGAGCATTGGAATCAATGACCTTTGGCCCAGTAAGGC
B25: NRC3_wobSeed42_DR1_A8T_o1 (dsDNA)
DNA 1: GCTATACTGGGTCAAAGGCCAGAGTACGAATGTCGAGCGATTGACAGCGTAGAATGAAGG
DNA 2: CCTTCATTCTACGCTGTCAATCGCTCGACATTCGTACTCTGGCCTTTGACCCAGTATAGC
B26: NRC3_wobSeed97_DR4_C7G_o1 (dsDNA)
DNA 1: GCCAAAGTAGGTCACGAAAGGTCAAAGTCGAATGACGCGATTGACAGCGTAGAATGAAGG
DNA 2: CCTTCATTCTACGCTGTCAATCGCGTCATTCGACTTTGACCTTTCGTGACCTACTTTGGC
B27: NRC3_wobSeed97_DR4_A4T_o1 (dsDNA)
DNA 1: B26 DNA 1 with A4T, G7C
DNA 2: B26 DNA 2 with C54G, T57A
B28: NRC3_wobSeed17_DR0_T13C_o1 (dsDNA)
DNA 1: GCATATGTAGGTCAGGGTCATTCAGAAAGTAGGGAAGCGATTGACAGCGTAGAATGAAGG
DNA 2: CCTTCATTCTACGCTGTCAATCGCTTCCCTACTTTCTGAATGACCCTGACCTACATATGC
B29: NRC3_wobSeed66_DR2_C20T_o1 (dsDNA)
DNA 1: GCAATACAGGGTCACTAGGTCAGAGTAGGTACGAATGCGATTGACAGCGTAGAATGAAGG
DNA 2: CCTTCATTCTACGCTGTCAATCGCATTCGTACCTACTCTGACCTAGTGACCCTGTATTGC
B30: NRC3_wobSeed89_DR3_T13G_o1 (dsDNA)
DNA 1: GCCTATGTAGGTGAAGGGGGTCATTCAGTTTGAAAGGCGATTGACAGCGTAGAATGAAGG
DNA 2: CCTTCATTCTACGCTGTCAATCGCCTTTCAAACTGAATGACCCCCTTCACCTACATAGGC
B31: NRC3_random_hg19_249_o1 (dsDNA)
DNA 1: GCTTTCCCACAATGTGTAGTTAGAGTTTGAGTTGTGGCGATTGACAGCGTAGAATGAAGG
DNA 2: CCTTCATTCTACGCTGTCAATCGCCACAACTCAAACTCTAACTACACATTGTGGGAAAGC

Each binder was assayed against PPARg:RXRa (Homo sapiens, UniProt P37231;P19793 full;full) (assay: no ligand; PBM; 180 nM : 90 nM RXRa; PBS pH 7.4, 2% milk, 0.02% Triton X-100, 1 mM DTT, BSA, 0.4 mg/ml salmon testes DNA). Details: tags: His kept;His cleaved; copies: 1;1; label: surface-attached array probe.
PPARg:RXRa, sequence (P37231 29-505, chain 1 of 2): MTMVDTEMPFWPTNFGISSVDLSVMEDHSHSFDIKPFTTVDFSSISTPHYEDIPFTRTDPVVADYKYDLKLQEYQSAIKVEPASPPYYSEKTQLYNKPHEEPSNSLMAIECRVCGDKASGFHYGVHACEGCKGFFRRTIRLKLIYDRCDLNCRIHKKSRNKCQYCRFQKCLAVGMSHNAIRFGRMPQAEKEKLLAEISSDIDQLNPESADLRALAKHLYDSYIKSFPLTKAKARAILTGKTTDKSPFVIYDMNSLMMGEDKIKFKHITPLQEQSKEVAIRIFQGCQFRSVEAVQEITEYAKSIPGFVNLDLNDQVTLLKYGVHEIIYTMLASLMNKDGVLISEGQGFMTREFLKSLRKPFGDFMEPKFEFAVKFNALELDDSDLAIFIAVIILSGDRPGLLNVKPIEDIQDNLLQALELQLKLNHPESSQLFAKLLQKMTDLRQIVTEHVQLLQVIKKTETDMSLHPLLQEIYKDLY
PPARg:RXRa, sequence (P19793 whole entry, chain 2 of 2): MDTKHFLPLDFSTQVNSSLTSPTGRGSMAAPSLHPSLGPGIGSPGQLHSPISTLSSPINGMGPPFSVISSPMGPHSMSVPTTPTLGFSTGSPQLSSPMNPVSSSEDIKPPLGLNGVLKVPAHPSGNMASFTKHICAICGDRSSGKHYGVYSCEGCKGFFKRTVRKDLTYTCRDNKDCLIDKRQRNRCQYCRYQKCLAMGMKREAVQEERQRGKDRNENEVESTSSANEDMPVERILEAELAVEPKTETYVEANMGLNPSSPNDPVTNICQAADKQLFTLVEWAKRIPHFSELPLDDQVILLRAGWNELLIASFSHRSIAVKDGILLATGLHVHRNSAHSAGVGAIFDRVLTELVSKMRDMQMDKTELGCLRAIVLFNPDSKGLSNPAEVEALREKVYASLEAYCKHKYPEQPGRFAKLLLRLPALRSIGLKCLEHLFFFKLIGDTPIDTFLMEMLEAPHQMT

Binder	binding signal
B1	12.1 PBM z-score against 500 random probes
B2	10.8 PBM z-score against 500 random probes
B3	0.49 PBM z-score against 500 random probes
B4	10.2 PBM z-score against 500 random probes
B5	9.94 PBM z-score against 500 random probes
B6	10 PBM z-score against 500 random probes
B7	10 PBM z-score against 500 random probes
B8	12.8 PBM z-score against 500 random probes
B9	9.85 PBM z-score against 500 random probes
B10	3.34 PBM z-score against 500 random probes
B11	9.91 PBM z-score against 500 random probes
B12	10.2 PBM z-score against 500 random probes
B13	-0.56 PBM z-score against 500 random probes
B14	10.4 PBM z-score against 500 random probes
B15	10.2 PBM z-score against 500 random probes
B16	10.7 PBM z-score against 500 random probes

Binder	binding signal
B17	10.1 PBM z-score against 500 random probes
B18	10 PBM z-score against 500 random probes
B19	12.3 PBM z-score against 500 random probes
B20	10.1 PBM z-score against 500 random probes
B21	10 PBM z-score against 500 random probes
B22	10.5 PBM z-score against 500 random probes
B23	10.2 PBM z-score against 500 random probes
B24	12.9 PBM z-score against 500 random probes
B25	10.8 PBM z-score against 500 random probes
B26	10.8 PBM z-score against 500 random probes
B27	10.8 PBM z-score against 500 random probes
B28	9.79 PBM z-score against 500 random probes
B29	9.89 PBM z-score against 500 random probes
B30	9.64 PBM z-score against 500 random probes
B31	-0.37 PBM z-score against 500 random probes

Each binder was assayed against PPARa:RXRa (Homo sapiens, UniProt Q07869;P19793 full;full) (assay: no ligand; PBM; 270 nM : 90 nM RXRa; PBS pH 7.4, 2% milk, 0.02% Triton X-100, 1 mM DTT, BSA, 0.4 mg/ml salmon testes DNA). Details: tags: GST kept;His cleaved; copies: 1;1; label: surface-attached array probe.
PPARa:RXRa, sequence (Q07869 whole entry, chain 1 of 2): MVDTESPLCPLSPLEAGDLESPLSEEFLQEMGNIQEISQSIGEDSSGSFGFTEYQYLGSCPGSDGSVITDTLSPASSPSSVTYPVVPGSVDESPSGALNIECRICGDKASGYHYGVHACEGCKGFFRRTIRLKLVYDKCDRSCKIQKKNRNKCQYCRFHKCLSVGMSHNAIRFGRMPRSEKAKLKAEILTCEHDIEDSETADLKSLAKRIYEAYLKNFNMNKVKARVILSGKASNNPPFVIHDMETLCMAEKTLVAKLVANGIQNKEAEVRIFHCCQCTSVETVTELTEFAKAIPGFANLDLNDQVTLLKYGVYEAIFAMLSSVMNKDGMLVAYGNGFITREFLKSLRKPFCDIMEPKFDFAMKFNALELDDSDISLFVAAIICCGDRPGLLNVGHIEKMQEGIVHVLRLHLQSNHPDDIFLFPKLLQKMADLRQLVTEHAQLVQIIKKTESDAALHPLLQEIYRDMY
PPARa:RXRa, sequence (P19793 whole entry, chain 2 of 2): as the sequence (P19793 whole entry, chain 2 of 2) above
Procedure, shortened: (§1)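 Ligand-free nuclear receptor dimers were bound for 1 h to custom Agilent 4×180K protein-binding microarrays. Detection used antibodies against each partner (one per run). Binding z-scores rest on regression-normalized fluorescence, with random background probes as the reference.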

Binder	binding signal
B1	6.88 PBM z-score against 500 random probes
B3	0.44 PBM z-score against 500 random probes
B8	7.07 PBM z-score against 500 random probes
B13	-0.1 PBM z-score against 500 random probes
B19	6.69 PBM z-score against 500 random probes
B24	7.1 PBM z-score against 500 random probes

Each binder was assayed against RARg:RXRa (Homo sapiens, UniProt P13631;P19793 full;full) in the same assay as above. Details: tags: His kept;His cleaved; copies: 1;1; label: surface-attached array probe.
RARg:RXRa, sequence (P13631 whole entry, chain 1 of 2): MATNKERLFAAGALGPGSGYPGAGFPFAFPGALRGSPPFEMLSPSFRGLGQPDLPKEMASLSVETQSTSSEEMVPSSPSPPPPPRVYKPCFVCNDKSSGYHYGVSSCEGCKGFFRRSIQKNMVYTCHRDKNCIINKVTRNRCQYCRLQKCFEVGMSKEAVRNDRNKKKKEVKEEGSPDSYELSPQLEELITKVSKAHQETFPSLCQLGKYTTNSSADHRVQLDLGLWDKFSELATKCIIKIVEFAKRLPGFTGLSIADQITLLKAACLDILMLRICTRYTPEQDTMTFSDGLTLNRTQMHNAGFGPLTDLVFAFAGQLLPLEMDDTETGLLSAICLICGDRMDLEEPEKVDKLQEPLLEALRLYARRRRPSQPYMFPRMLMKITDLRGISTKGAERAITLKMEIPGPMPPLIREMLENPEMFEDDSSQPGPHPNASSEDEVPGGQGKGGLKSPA
RARg:RXRa, sequence (P19793 whole entry, chain 2 of 2): as the sequence (P19793 whole entry, chain 2 of 2) above
Procedure, shortened: as §1

Binder	binding signal
B10	4.24 PBM z-score against 500 random probes
B31	-0.1 PBM z-score against 500 random probes

Source: PMC6555819, “Comprehensive study of nuclear receptor DNA binding provides a revised framework for understanding receptor specificity”
